# According to the RNAGym collection of RNA variant scans (doi:10.1073/pnas.2313332121):
# Fewer inactive variants are shown than the library holds.
# B1: TPR 5TU (parent)
# chain: GGAUCUUCUCGAUCUAACAAAAAAGACAAAUCUGCCACAAAGCUUGAGAGCAUCUUCGGAUGCAGAGGCGGCAGCCUUCGGUGGCGCGAUAGCGCCAACGUUCUCAACUAUGACACGCAAAACGCGUGCUCCGUUGAAUGGAGUUUAUCAUG
# Variants of: B1
# Test: polymerase ribozyme fitness, log enrichment relative to wild type (log ratio); higher = more active; in vitro selection for triplet polymerase activity
# Outline: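 Fitness is a logarithmic measure of how a genotype enriched relative to the wild type, with replicate averages weighted by inverse variance. The logarithm uses base 2, and enrichment came from Illumina sequencing of input and output libraries. Those libraries were PCR-built, transcribed mutants of each subunit of a heterodimeric triplet polymerase ribozyme, passed through one triplicate in vitro selection round that included frozen incubation at −7 °C, gel excision of extended constructs and streptavidin-bead capture. Genotypes were kept only if they had ≥10 input reads and ≥1 read per output.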
row,Variant,polymerase ribozyme fitness (log ratio)
1,U55G G59U G67C U77A C96G A119C U139A U148G,≤ -4.2
2,U56A C93A A106G,-1.97
3,U55A G83A C105G C118A,-3.78
4,U56A G81C C87U,-1.03
5,U56A C87U,-1.66
6,U56A C85U U144C,-0.306
7,C57A C129U C131U U134C,1.02
8,U56A G81U C93G,-3.18
9,U56A C95U,0.199
10,U55A U109G,-1.03
11,U56A U101G U144C,-0.262
12,U55G C63A U134G,-3.01
13,U55G G92U G117A A121U A122U U151G,≤ -4.2
14,U56A G88C U145G,-4.05
15,U55A U82G G92A C103U G124A,-3.62
16,U55G G71A C87G G112C,≤ -4.2
17,U55G G59U U127C,-2.75
18,U55C C57A A73G C96U A121C C131U,1.56
19,C57U A115G U144C,≤ -4.2
20,U56A G68A,-4.01
21,U55G C87U C129G,-3.16
22,U56A C76U C125U U148G G152U,-3.64
23,U55A C99G,-1.61
24,C57U C76U C129G,-3.51

row,Variant,polymerase ribozyme fitness (log ratio)
1,C57G C123G,-0.87
2,C57A C114U A120G C129U,≤ -4.2
3,U55A G68A G86U U90A A97U U101A A137C U145C,≤ -4.2
4,C57A G83A,-0.934
5,U55C G74U,≤ -4.2
6,U55A A66G G86A A97G U146G,≤ -4.2
7,U56A C75G G94A C105U G133U,-4.17
8,C57U A60U C95A C105U C125A,-2.41
9,C57G G59A G81C U104G A120U,-1.84
10,U56A G58A A73G C96U U102G G117A U135A G141A,≤ -4.2
11,C57A C96U U146G,-0.855
12,C57A G92C,-0.41
13,C57A G92A,-3.13
14,U56A A60G C79G A119C A121U,-3.78
15,U56A C87U C131G,-3.21
16,C57G C87U,-2.97
17,U55G C125G U151G,≤ -4.2
18,U55G G83U C85U A89U C95A,-3.88
19,U56A G84A A91G,-3.59
20,U56A G86U,-0.958
21,U56A G86C,≤ -4.2
22,U56A C96A,-0.833
23,U56A C75U,-0.839
24,U55A C57A C93U G126U,-0.627

row,Variant,polymerase ribozyme fitness (log ratio)
1,U55A C85G C125U U144A,-3.47
2,U55C G88A C96U,≤ -4.2
3,C57G A60C G81C C103A U111G A119C,≤ -4.2
4,C57A C69A C72U C85A,-3.55
5,U55G C93U C116U G141A U144G,-2.63
6,U56A G58U G94C U145G,0.0333
7,U55G G74A C85U A110G,≤ -4.2
8,U55A C57G,-0.56
9,U55A U61G,-3.71
10,C57G G59U A60G C85G A89U A97U G128A U148A,≤ -4.2
11,U55G U61A,-3.22
12,C57G C85A C118U G143C,-4.1
13,U55A C63A C96G,-2
14,U55A A98U U135A,-1.42
15,U56G G62C A120C C132A U139G,≤ -4.2
16,U55A G94A,-0.894
17,C57A A73G,0.866
18,U55G C85A C99U G136A,-3.43
19,U55A G59A U61C U135C A142G,-3.84
20,U56A U61G G88C G136U,≤ -4.2
21,U56G G62U C85A A119C C131U,-1.78
22,C57G U82A C95G U134C,-1.35
23,U56A A73U C76A A97U,≤ -4.2
24,U56A U82A C96A C114G,-3.42

row,Variant,polymerase ribozyme fitness (log ratio)
1,U55A C118G A147U,0.0992
2,C57A A97U G124A G140U,-4.13
3,U55A G68A C76A C96G C114G G133A A138U,≤ -4.2
4,U56A C131U,0.529
5,C57A G74A,-2.66
6,U55A C93U C95A,-2.89
7,U55G C69A C87U C105A A138U,≤ -4.2
8,C57A G70A U134C,-3.65
9,C57A G92C C123A,-0.277
10,U55A G92U G124C,-0.918
11,U55A A60G U102A U148A,-3.91
12,U55A G58C G68U G81A A91U C96A,≤ -4.2
13,U55A G86A,-1.59
14,U55A G86U,-1.44
15,C57U A64U G92A A138U U145G A150C,≤ -4.2
16,C57A A60C C96U C132A,-3.83
17,U55A C96U,-0.113
18,U56A A89C,-0.735
19,U56G A119C U146G,-1.1
20,U55G G58C U144G,-0.023
21,U55G C57A G62C C79U U109G,≤ -4.2
22,U56G A89C C96A C116G A119C,-3.23
23,U56A C85A A91G G128U,≤ -4.2
24,U56A U148C,-1.25

row,Variant,polymerase ribozyme fitness (log ratio)
1,U56A G128A,-3.15
2,U55G U56A U82A U145A,-1.23
3,U55G C96U,-0.6
4,U56A C75U A121C G128U,-2.63
5,U55G C69U G71U G128A,≤ -4.2
6,U56A U82G C96U A120G,-0.394
7,U56A C85U C114A G141C,≤ -4.2
8,C57A C105U A120G,0.486
9,U55G C87A,-4.1
10,C57G A142C,-0.312
11,U56A C87U C96U C103G,-3.09
12,C57G A97U,-0.704
13,U56G U90A,-3.7
14,U55A G59C,0.269
15,U55A C69A C76U U82G,-3.45
16,U56A C96U U148A,-3.44
17,U55A A66U A98G A122U A150C,≤ -4.2
18,U56A G83A,-0.831
19,U56A C76U A113C,-2.48
20,U55A C76G G92A A122G,≤ -4.2
21,U55A A97G,-0.39
22,C57U C69U,-0.915
23,U55G C85U A91G G94A,-3.29
24,U56C U101G A120U C131A,-2.44

row,Variant,polymerase ribozyme fitness (log ratio)
1,U56C C87G,≤ -4.2
2,U56G C57U G62U A66G C75U G83U,≤ -4.2
3,U55A C93U A150C,-4.02
4,C57U A64G,-3.91
5,U55A G88C U90C A122G G124A U148A,-4.18
6,U56A C69A C79U C93G U151A,≤ -4.2
7,U56G C57U C96U,-0.884
8,U56C G83U,-0.525
9,U55G G58C C116U G143A,-1.24
10,U56A A106C U109G C114U C118A,≤ -4.2
11,U56A G94A,-1.28
12,U56G G94A U139G,-1.18
13,U56A U109C G141U,-2.56
14,U55G C85G G88U G92U C108U,≤ -4.2
15,U55A C85A C93G,≤ -4.2
16,U55G U104A A122G A137C,≤ -4.2
17,U56G C96A,-1.15
18,U55A C116U,-0.684
19,U55G U82A G84U U102C,-3.21
20,U55A U90A G100C C118U,≤ -4.2
21,U56A G143C,-2.27
22,C57U A147U,1.47
23,U55A G83U C85A U101C C116A,≤ -4.2
24,U55A A106G A119C A122G,-0.869

row,Variant,polymerase ribozyme fitness (log ratio)
1,U56A G94C A115C A121U U134A A147U,-3.74
2,C57A U90A C103G,≤ -4.2
3,U55A A119G,-1.38
4,U55G U56A G59C C99G A142G,-2.78
5,U56G G58A A73G C108U A150G,≤ -4.2
6,U56C C69A U135A,-3.01
7,C57A C85A A147G,-1.09
8,C57G U82C C95U C125A C131U U135C U146C,-3.38
9,U55A C76G C85A A113U G128A,≤ -4.2
10,U55A G84U G124A,-1.26
11,U56A A106G,-0.585
12,C57U A60G G133C G152U,-3.31
13,U55A A89U,-0.224
14,C57G G59A A73U G88C,≤ -4.2
15,U55A A97G C116A,1.12
16,U55G C79G,-3.78
17,U56G C129U,-0.408
18,U55A U148A,-3.84
19,U56G U144A,-0.473
20,U55A C85U C114G G128A,≤ -4.2
21,U55A G81A C87U G136A,0.0612
22,U55A G62C G117A C131G,≤ -4.2
23,U55G C96A U109G G143A,-3.3
